The nature of data set [1]: Absorption spectroscopy in PBS or DMSO (solubility / aggregation). It counts as physicochemical. The settings on record: PBS; absorption spectra 0.1-100 μM; read-out: soluble in PBS with essentially no aggregation or assembly. As to the method:
Samples of 5′ at 1 μM in DMSO or PBS were analyzed by absorption spectroscopy (FIG. 8, panel A). […] In PBS, two broad peaks at 417 nm and 455 nm were observed, indicating aggregation of the sample at 1 μM. Samples of 4′ at 1 μM in DMSO or PBS were also analyzed for comparison (FIG. 8, panel B). The spectrum of the sample in DMSO was identical with 5′, while in PBS the Soret band spilt into 3 broad peaks at 409 nm, 419 nm and 455 nm. The different spectra between 4′ and 5′ might result from different ways of porphyrin stacking, as 4′ doesn't have the long PEG chain in its structure.
Samples of 0.1 μM, 1 μM, 10 μM and 100 μM were analyzed using cuvettes with a pathlength of 10 cm, 1 cm, 0.1 cm and 0.01 cm, respectively. There is only a very slight broadening of the absorption bands at 100 μM, and at all concentrations the general spectroscopic features characteristic of the porphyrin are retained.

Data set [2] has as its target T1, alkaline phosphatase (ALP) (Bos taurus, UniProt P19111).
T1 construct: Alkaline phosphatase from bovine intestinal mucosa was purchased from Sigma-Aldrich; purchased Sigma-Aldrich; host or cells: bovine intestinal mucosa (tissue-derived)
Nature of the data set: Enzymatic assay of 5 with alkaline phosphatase, aggregation followed by absorption spectroscopy. It counts as biochemical, bovine. As to the method: The stock solution of 5 in DMSO was diluted with PBS to prepare sample solutions with different concentrations (0.10 μM, 0.20 μM, 0.50 μM, 1.0 μM, 2.0 μM, and 5.0 μM). Each sample was treated with 2 U/mL of alkaline phosphatase (ALP) and incubated overnight at 37° C. The absorption spectra across the range 300-700 nm, where the porphyrin absorbs strongly, were measured before and after the enzyme treatment for each sample (FIG. 4, panels A-F). For samples with concentration lower than 0.50 μM (FIG. 4, panels A, B), the intensity of the Soret band of 5 at 420 nm decreased after enzyme treatment, yet precipitation or other signs of aggregation were not observed. When the concentration of the sample was equal to or higher than 0.50 μM (FIG. 4, panels C-F), the intensity of the Soret peak at 420 nm decreased and a new peak appeared at 455 nm after the enzyme treatment. The new peak at 455 nm indicates the aggregation of the sample upon the treatment of ALP. The Q band (at ˜550 nm) also underwent a bathochromic shift and broadening, albeit of lesser magnitude than that of the higher-energy Soret band. Compound 5′, which lacks the two phosphoester moieties, is prone to aggregation in PBS, consistent with the observed results for ALP treatment of 5. The change in the color of the sample was also observed. After the overnight incubation, the color of the sample changed from pink to orange.
To confirm that the peak appeared after enzyme treatment was caused by aggregation, DMSO was added to the sample of 5 (5.0 μM in PBS) after enzyme treatment to disaggregate the sample. After adding DMSO to dilute the solution in half, the peak at 455 nm almost disappeared and the intensity of the peak at 420 nm increased. Color changes of the solution were observed during the treatment, with the solution appearing pink initially (indicating a monomeric state), then yellow after treatment with ALP (indicating aggregation), and finally returning to pink after dilution with DMSO, albeit a lighter pink than the initial solution, due to dilution (indicating disaggregation). The result further confirmed that compound 5 aggregates in aqueous solution after the enzyme treatment.
Enzymatic assay. The stock solution of 5 in DMSO (2 mM) was diluted with PBS to prepare sample solutions with different concentrations. The final concentrations of 5 in each sample were 0.20 μM, 0.50 μM, 1.0 μM, 2.0 μM, 5.0 μM and 10 μM, respectively. A solution of alkaline phosphatase from bovine intestinal mucosa (10 μL, 100 U/mL in PBS) was added to each sample solution to reach a final volume of 500 μL (PBS containing 0.5% DMSO). The reaction mixture was incubated overnight at 37° C. Then each sample was analyzed by absorption spectroscopy. Samples without the treatment of ALP were also analyzed to serve as controls.
To confirm the aggregation of the dephosphorylated 5 in PBS, 500 μL of DMSO was added to one of the treated samples (10 μM) and was then analyzed by absorption spectroscopy.

Data set [3] deals with T1, alkaline phosphatase (ALP). Nature of the data set: Enzymatic cleavage of 5 by ALP monitored by reverse-phase HPLC. It counts as biochemical, bovine. Particulars: 200 μM in PBS, 2 U/mL ALP, 37° C., 6-hour incubation. The protocol: The enzymatic cleavage was monitored with reverse-phase high performance liquid chromatography. A solution of 200 μM 5 in PBS was treated with 2 U/mL ALP and incubated at 37° C. A small part of sample was taken from the reaction at different time points (30 min, 1 h, 2 h, 4 h, 6 h and 8 h) and was analyzed by HPLC (5-95% MeCN/10 mM NH4HCO3 in H2O) (FIG. 7). The 3 peaks in the chromatograph after 30 min of ALP treatment represents compound 5 (peak 1), partially cleaved product (peak 2) and fully cleaved product (peak 3). The reaction almost completes after 6-hour incubation (>95% by integration). The LC trace of the standard dephosphorylated sample 5′ is shown for comparison. Attempts were made to get LC-MS data for 5 but no mass signal was detected. This might result from the poor solubility of 5 in the acidic mobile phase (MeCN/H2O, 0.1% FA).
Reverse phase high performance liquid chromatography. A solution of 200 μM 5 in PBS was treated with 2 U/mL ALP and incubated at 37° C. A small part of sample was taken from the reaction at different time points (30 min, 1 h, 2 h, 4 h, 6 h and 8 h) and was analyzed by RP-HPLC with an Agilent Zorbax SB-C18 column (5 μm, 4.6×150 mm). The sample was run for 15 min with a linear gradient (5-95% MeCN/10 mM NH4HCO3 in H2O) and detected with a diode-array detector at 420 nm.

Data set [4] deals with alkaline phosphatase (ALP). Particulars: 10 μM in PBS, 10 min at 10000 rpm. As to the method:
Samples of 5 (10 μM in PBS) with or without ALP treatment were centrifuged with Amicon centrifugation devices (molecular cutoff 50 kDa). […] Solutions collected in the bottom or top tube for the sample that underwent enzyme treatment were analyzed with absorption spectroscopy (FIG. 5).

Data set [5] in a line: Fluorescence spectroscopy of aggregation (intensity in PBS vs DMSO). It counts as physicochemical. The settings on record: 316 nM in PBS; incomplete aggregation. The protocol:
Aggregation of 5′ at low concentrations was analyzed by fluorescence spectroscopy. The ratio of maximum fluorescence intensity of samples in PBS to that of sample in DMSO was plotted against concentration (FIG. 9). The ratio decreased as the concentration increased in the range of 1.0 nM to 316 nM, which implies that 5′ aggregates more in PBS as the concentration increases. Even with the concentration of 316 nM, the sample didn't aggregate completely in PBS and retained ˜30% fluorescence. The long PEG chain in 5′ provides the compound with good hydrophilicity and may contribute to incomplete aggregation. Fluorescence intensity at higher or lower concentrations was not measured due to the detection range of the instrument. The porphyrin-peptide conjugate without PEG chain, 4′, was examined by fluorescence intensity as well. Samples at 31.6 nM, 100 nM, and 316 nM were analyzed and the fluorescence intensity ratio of all samples was below 2%. The results imply that 4′ almost aggregates completely even at a very low concentration.
Fluorescence spectroscopy. Samples were dissolved in PBS and DMSO at different concentrations. The excitation wavelength was 419 nm for all samples in DMSO, 415 nm for 5′ in PBS, and 419 nm for 4′ in PBS. The intensity ratio was calculated with the maximum emission of each sample. […]

This note sets out measurements from US20250009913A1, “COMPOUNDS FOR USE IN NON-COVALENT SCAFFOLD AND METHODS RELATED THERETO” (NORTH CAROLINA STATE UNIVERSITY, priority 2023, published 2025).

Read-outs that look alike come from different tables or passages of the source. Some results are limits rather than exact numbers.

T1 sequence (P19111 20-506 limits assumed): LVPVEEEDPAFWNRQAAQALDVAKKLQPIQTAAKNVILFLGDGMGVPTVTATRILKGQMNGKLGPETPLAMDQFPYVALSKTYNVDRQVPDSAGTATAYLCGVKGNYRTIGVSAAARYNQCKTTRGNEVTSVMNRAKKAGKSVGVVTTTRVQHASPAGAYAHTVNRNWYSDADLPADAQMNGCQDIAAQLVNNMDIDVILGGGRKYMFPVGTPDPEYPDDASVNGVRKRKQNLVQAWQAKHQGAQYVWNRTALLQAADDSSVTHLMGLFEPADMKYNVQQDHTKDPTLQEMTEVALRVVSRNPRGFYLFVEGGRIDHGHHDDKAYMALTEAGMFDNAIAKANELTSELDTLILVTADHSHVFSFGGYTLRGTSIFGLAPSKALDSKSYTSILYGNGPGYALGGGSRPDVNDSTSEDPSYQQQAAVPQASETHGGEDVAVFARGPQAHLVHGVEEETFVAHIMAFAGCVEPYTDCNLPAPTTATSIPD

As to `COCCOCCOCCOCCOCCOCCOCCOCCOCCOCCOCCOCCOCCOCCOCCOCCOCCOCCOCCOCCOCCOCCOCCOCCn1cc(-c2ccc(-c3c4nc(cc5ccc([nH]5)c(-c5c(OCc6cn(CCC(=O)NCC(=O)N[C@H](Cc7ccccc7)C(=O)N[C@H](Cc7ccccc7)C(=O)N[C@@H](Cc7ccc(OP(=O)(O)O)cc7)C(=O)O)nn6)cccc5OCc5cn(CCC(=O)NCC(=O)N[C@H](Cc6ccccc6)C(=O)N[C@H](Cc6ccccc6)C(=O)N[C@@H](Cc6ccc(OP(=O)(O)O)cc6)C(=O)O)nn5)c5nc(cc6ccc3[nH]6)C=C5)C=C4)cc2)nn1` [Compound 5, PEG24-GffY(p)-OH], in data set [1], the solubility was not below 100 µM. In data set [2] (0.1 μM), the “behaviour of activated form at very low concentration” value is recorded as “came out of solution without forming a gel superstructure”. Also, the “concentration at which new peak at 455 nm (aggregation) appears after enzyme treatment” value in data set [2] (PBS with 0.5% DMSO, 2 U/mL ALP, overnight 37° C.) was not below 500 nM. The reversibility of aggregation entry in data set [2] (after ALP treatment in PBS, upon addition of DMSO) was “reversible”. Further, the “precipitation after high-speed centrifugation or long-time storage” value in data set [2] (after ALP treatment, centrifugation >10000 rpm or storage >1 month) was “No precipitation or microcrystals were observed”. Besides, in data set [2] (concentration as high as 200 μM), the “formation of microcrystals or precipitates upon ALP treatment” value is recorded as “did not form microcrystals or precipitates”. In addition, the “completion of dephosphorylation reaction by HPLC integration” value in data set [3] is reported as more than 95%. Also, the “passage through 50 kDa membrane” value in data set [4] (after ALP treatment) is “didn't pass through the membrane”; in data set [4] (without ALP treatment), “passed through the 50 kDa membrane”.

Take PEG24-GffY-OH [Compound 5′]: the “fluorescence retained in PBS (relative to DMSO)” value in data set [5] was approximately 30%.
